According to the supplement of paper PMC9170038:

Tested on: MS2 coat protein
Assay: apparent KD of MS2 coat protein; designed switch direction (-1 OFF switch, 1 ON switch): -1; higher = weaker reporter binding
How it was run: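 Designed RNA switches with common flanks were transcribed on Illumina chips by stalled E. coli RNA polymerase and titrated with SNAP-549-labelled MS2 coat protein, from 0.7 or 1.5 nM doubling to 3 µM, in Tris-HCl pH 7.5 buffer with KCl, MgCl2, BSA, DTT, tRNA and Tween-20. Steps lasted 0.8–1.5 h (lowest) to 10–20 min (highest). Titrations ran without input, with 200 uM small-molecule ligand, or with an oligonucleotide input. Normalised cluster fluorescence was curve-fitted, and apparent KD is the per-design median over clusters.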

[1] = Eterna round: R95, input ligand: FMN 200 uM
[2] = Eterna round: R95, input ligand: microRNA oligo, concentration not stated
[3] = Eterna round: R95, input ligand: none
[4] = input ligand: microRNA oligo, concentration not stated

Sequence | apparent KD of MS2 coat protein [1] [nM] | apparent KD of MS2 coat protein [2] [nM] | apparent KD of MS2 coat protein [3] [nM] | apparent KD of MS2 coat protein (input ligand: FMN 200 uM) [nM] | apparent KD of MS2 coat protein (input ligand: none) [nM] | apparent KD of MS2 coat protein [4] [nM]
AGUAGUUGUUUCCGUUCUUACAUGAGGAUCACCCAUGUUUCUUGUCGUGCUCGCGUUGCUCGUCAGACUACCAGUUG [salish99_TOv1_r3_061] (puzzle: Sensor v3, turn-off variant 1) | 62.4 | 73.7 | 87.6 |  |  | 
GAGUGACAUGAGGAUCACCCAUGUGAGGAUAUCGGACGGACCAAAUUAACAAUUUUUGCGAGAAGGCACAUCGG [Exclusion 1 V18] (puzzle: Exclusion 1) |  | 51.9 |  |  |  | 
GUUAACGUAGGAUAUUAGUACAUGAACAUGAGGAUCACCCAUGUGAGGUAGGUCUUAGAAUAAGAAGGGCGAAGAA [EX5 #28] (Eterna round: R97, puzzle: Exclusion 5) |  |  |  | 124 | 124 | 
UAUUAAUGCAAGGAUAUGCUUUUAAUUUUUUUUGCAGAAGGUGCAACAUGAGGAUCACCCAUGUUUGAGGGUAU [JR_E6_Sub030] (puzzle: Exclusion 6) | 68.4 | 59 | 53.8 |  |  | 
UUGUAGUUUGUAGGAUAUGGUUAUGUAUGUAAUCUAGAAGGACAUGAGGAUCACCCAUGUGGAGGUAAGUUGGGAAGAAGUAAU [random1] (Eterna round: R96, puzzle: Exclusion NG 1) |  |  |  | 55.6 | 56.4 | 30.8
GUUUUCAGACGGAGAUCCUACAUGAGGAUCACCCAUGUCUCACUAGCUUUUUGCUCGUCUUAUCCUCCUCUGUUCUC [Elimod 28 - Jieux - Sensor, turn-off variant 1] (Eterna round: R97, puzzle: Sensor, turn-off variant 1) |  |  |  | 336 | 460 | 
CGUAUCUUUCACGUGAGUAGUGGGUGCAACAGGUGGGUCACAUGAGGAUCACCCAUGUACUCACUUGCUCGUCUUAU [Grok-var2-07] (puzzle: Sensor v3, turn-off variant 2) | 24 | 14 | 21.8 |  |  | 
AUAUAACAUGAGGAUCACCCAUGUCAGGAUAUGCAGAACAAGAACAAGACAAGACAGAGCAGAAGGGACAAUAU [Ex 1 M4] (puzzle: Exclusion 1) | 43.8 | 34.9 | 48.1 |  |  | 
CGUCGACAUGUAGGAUAUCUGCACGAUUAGUGCAGAGAAGGACAUGAGGAUCACCCAUGUAGAUCACGACGAAUUAAUUUAAUU [ENG1/6-C1] (Eterna round: R96, puzzle: Exclusion NG 1) |  |  |  | 476 | 527 | 298
GCUGGUCGAGGAUAUACAUGAGGAUCACCCAUGUGGUCACGUGACGAUAGUCACGAAUGUAGAAGGUGACCAGC [E3/3-B1] (Eterna round: R97, puzzle: Exclusion 3) |  |  |  | 107 | 1760 | 
AGAUAGUGCAGAGGAUAUCGUAAUAGAAAGAAUCGAGAAGGCUGACAUGAGGAUCACCCAUGUGAUGUCUUGAGACUACAUGGU [Prohibition 34 - Jieux - Exclusion NG 1] (Eterna round: R96, puzzle: Exclusion NG 1) |  |  |  | 460 | 83.1 | 62.8
UUCAUGUUAGGAUAUUCCGCCACAGAGAAAGACUGUGGAAUGAAGAAGGGACAUGAGGAUCACCCAUGUUCCAA [EX4 A.5] (Eterna round: R97, puzzle: Exclusion 4) |  |  |  | 14.2 | 14.3 | 
CUGAGGUAGCGGUCCUAUGACAUGAGGAUCACCCAUGUACCUUGCUUUGAGCAAUUUGCUCGUCUUAUGAUUCUCGG [Mat - Sensor v3 - turn-off var 1 - JL Mod - D46] (puzzle: Sensor v3, turn-off variant 1) | 446 | 468 | 533 |  |  | 
GCAAAAUAUCAGGAUAUGACUAGCUGCGGCUAGUCAGAAGGGAUGACAUGAGGAUCACCCAUGUGAUCUCGUGU [JR_Ex6_Sub028] (Eterna round: R97, puzzle: Exclusion 6) |  |  |  | 487 | 177 | 
AAACAAACGGCAGGAUAUCCUCGUCAACACCACAAGUCCACUCGGACAUGAGGAUCACCCAUGUAGGAGAAGGGUCAGAAAUAC [ExNG2 4th] (Eterna round: R96, puzzle: Exclusion NG 2) |  |  |  | 37.2 | 37.1 | 24.6
GAACUGAGGCUUUGCUUUAGUCGUACAUGAGGAUCACCCAUGUAGGAUAUGGUAGGCUUUGCUUACCAGAAGGACAGAGUGAUC [JL EXNG3 1.21] (Eterna round: R96, puzzle: Exclusion NG 3) |  |  |  | 52.9 | 195 | 192
UGAGCUACAGGAUAUACAAGGCGACCGUGAGGUCGAAGGUUACAUGAGGAUCACCCAUGUAGAAGGGUAGUUCU [Mat - Exclusion 2 - JL Mod - D15] (Eterna round: R97, puzzle: Exclusion 2) |  |  |  | 130 | 126 | 

Sequence | apparent KD of MS2 coat protein [1] [nM] | apparent KD of MS2 coat protein [2] [nM] | apparent KD of MS2 coat protein [3] [nM] | apparent KD of MS2 coat protein (input ligand: FMN 200 uM) [nM] | apparent KD of MS2 coat protein (input ligand: none) [nM] | apparent KD of MS2 coat protein [4] [nM]
GGAUCGAGUGUGAGGAUAUGCUGGUCCUUGGAUCAGCAGAAGGCACAUGAGGAUCACCCAUGUGAUCAAGAUCC [Eli bmx4 4.76] (Eterna round: R97, puzzle: Brourd's mod of Exclusion 4) |  |  |  | 50.9 | 712 | 
AUUAGCGUAGGAUAUUGAUACAUGUACAUGAGGAUCACCCAUGUGAGGUGAGUCUUCGAUUAAGAAGGGCGCAGAA [EX5 #39] (Eterna round: R97, puzzle: Exclusion 5) |  |  |  | 82.6 | 1210 | 
CCUCCACAUGAGGAUCACCCAUGUCAGGAUAUCGUGUGUUUUUUUUCGGUCGCGCGUGCGAGAAGGGACGUCUU (puzzle: Exclusion 1) |  | 23.7 |  |  |  | 
CUGAGGUAGCGGUCCUAUGACAUGAGGAUCACCCAUGUGCCUUGCUACAAGCUUUUUGCUCGUCUUAUGAUUCUCGG [JL Atriat mod 9] (puzzle: Sensor v3, turn-off variant 1) | 47.8 | 107 | 51.9 |  |  | 
AUUAUAAAUGUAGGAUAUCUGCACGUUUAGUGCAGAGAAGGACAUGAGGAUCACCCAUGUAGAUCAAUAAUAAUUAAUUUAAUU [ENG1/5-B2] (Eterna round: R96, puzzle: Exclusion NG 1) |  |  |  | 146 | 33.7 | 29.1
UUUUAACAUGAGGAUCACCCAUGUGAGGAUAUCGAAAUUUAUAUUAAUAUUUAUUUUACGAGAAGGCACAUUUU [JMF 66] (puzzle: Exclusion 1) |  | 104 |  |  |  | 
CCGGCAUGGUGCGGUAGUUGUACAACAUGAGGAUCACCCAUGUAGGAUAUGCGCGUGGUCACGCCGCAGAAGGACAACGUAUGG [Random, 25% A] (Eterna round: R96, puzzle: Exclusion NG 3) |  |  |  | 668 | 96 | 89.4
UUAUUUCAAGCAAGAUCCUACAUGAGGAUCACCCAUGUGCUCGUCUUAUAAGGUACAGUGACGAAAGUCACAGUACC [Sensor 3, v1 - 000] (puzzle: Sensor v3, turn-off variant 1) | 173 | 152 | 202 |  |  | 
ACGUGAUAUCUGUCGGUGGACAUGAGGAUCACCCAUGUGAGCUUUUUGCUCGUCUUACAACCCGGUGACAGACCUUC [Bebitier] (puzzle: Sensor v3, turn-off variant 1) | 23.6 | 262 | 21.4 |  |  | 
GUAUGUCUAGGAUAUAUAUUGGAAUGUCCGUGUCCUAGCCAACAUGAGGAUCACCCAUGUAGAAGGAGAUGUGU [Eternabot (L1) Solution 97] (Eterna round: R97, puzzle: Exclusion 2) |  |  |  | 43.5 | 52.8 | 
ACAUGAGGAUCACCCAUGUUUGGCUGGUUUUCUCCGGCUGUCGAGGAUAUAGUCCGGUAUCCGCGCUAGAAGGUGAGGGCUGGC [Aenatbe mod 5] (Eterna round: R96, puzzle: Exclusion NG 3) |  |  |  | 14.5 | 20.4 | 13.1
GUCAUCACACAUGGGAUCAACAUGAGGAUCACCCAUGUUGUCAAGUUUUUUGCUCGUCUUAUAAUACGUUUGAUGAG [Mod-Jxd] (Eterna round: R97, puzzle: Sensor, turn-off variant 1) |  |  |  | 135 | 154 | 
AUUCAGCGAGGAUAUACAGGUUCUGGGUGAGGCUCGGCGAGACAUGAGGAUCACCCAUGUAGAAGGUGCUAGCC [Rezalaes] (puzzle: Exclusion 2) |  | 277 |  |  |  | 
CAGUACUGAGGAUAUACAUGAGGAUCACCCAUGUGUUCCAGCUAGGAUACUAGCAAAUGUAGAAGGCAGUACUG [Mat - Exclusion 3 - Eli Mod - D8] (Eterna round: R97, puzzle: Exclusion 3) |  |  |  | 62.9 | 227 | 
CGUCUGUGAGGAUAUGGUAUCGUUUACAUGAGGAUCACCCAUGUUACAUGGGACUAGAGACUAGAAGGUACGGACG [EX5 #48] (Eterna round: R97, puzzle: Exclusion 5) |  |  |  | 461 | 391 | 
UUUACAAGCUAUUGAUCCCACAUGAGGAUCACCCAUGUUCCUGGCCGUGAGGCUAGGUAAACAAUAGCUCGUCUUAU [Sensor-V1 #41] (Eterna round: R97, puzzle: Sensor, turn-off variant 1) |  |  |  | 98.4 | 95.1 | 
AUAACAAGCUUUUUUUUCGUCGUAUAUGACGCUCGAGUCACAUGAGGAUCACCCAUGUCUUCCUGUUUGAUUGUUGA [JR_SV3TOV2_Sub057] (puzzle: Sensor v3, turn-off variant 2) | 167 | 154 | 173 |  |  | 
